Patent publication US20230374088A1 (GENERAL HOSPITAL, published 2023)

T1: GST-Kif7-CC (460-600aa) (human, UniProt Q2M1P5 460-600)
T1 construct: held on the BLI sensor through the GST tag; also called Kif7 coiled-coil domain; coiled-coil dimerization domain fragment of Kif7; not shown: N-terminal GST tag (HRV protease cleavable, modified pGEX vector)
T1 sequence: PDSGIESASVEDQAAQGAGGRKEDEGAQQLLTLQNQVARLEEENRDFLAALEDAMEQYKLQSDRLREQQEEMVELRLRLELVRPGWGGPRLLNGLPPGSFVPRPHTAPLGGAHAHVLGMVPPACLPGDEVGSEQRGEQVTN

T2: Gli2-ZF-SNAP (human, UniProt P10070 418-604, Alexa 647 dye on the SNAP tag in the TIRF assays)
T2 construct: Labeled with Alexa 647 for TIRF microscopy; used unlabeled (as far as told) for cryo-EM; also called Gli2-ZF-SNAP-Alexa 647; Gli2-ZF-Alexa 647; not shown: C-terminal SNAP tag
T2 sequence (looked up): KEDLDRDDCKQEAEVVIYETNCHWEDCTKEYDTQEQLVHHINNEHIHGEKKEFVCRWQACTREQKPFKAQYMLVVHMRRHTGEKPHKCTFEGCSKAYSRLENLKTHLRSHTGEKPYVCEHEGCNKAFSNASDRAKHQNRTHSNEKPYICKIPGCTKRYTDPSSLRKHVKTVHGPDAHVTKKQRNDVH


Tests used:
GST-Kif7-CC (460-600aa) = molecular target: T1, GST-Kif7-CC (460-600aa); assay: BLI association step, GST-Kif7-CC on the sensor, soluble truncation at 125 nM [panel C]
Description: Equilibrium dissociation constants Kd (shown in parenthesis) were determined by fitting complete binding curves to Hill equation (See FIG. 10C). See also FIGS. 10A, 10B & 10C. Data is representative trace of a minimum of three repeats.
BLI experiments were performed in an Octet Red 96 instrument (ForteBio). To quantify Kif7-Gli2 binding, Experiments were performed in an assay buffer containing 40 mM TRIS pH7.3, 40 mM KCl, 40 μM ATP 1 mM MgCl₂, 0.12% tween and 0.5 mM TCEP. In the simplest assay, dimeric GST-Kif7-CC at a concentration of 120 nM is immobilized on an anti-GST biosensor chip. Unbound Kif7 is washed away with buffer, and the chips are then dipped into buffer with a range of Gli2-ZF concentrations from 0-1 μM to allow for association of the two proteins. After 300 seconds, they are then moved back into a well with just buffer to allow dissociation for 400 seconds. The equilibrium response of each sensor from three independent repeats at each Gli2 concentration were normalized and plotted against Gli2 concentration and fitted with a Hill function to obtain a Kₜ. […] The assays were also performed with HIS-tagged Kif7-DM and the Kif7-Kif27 chimeric proteins, requiring the use of an anti-penta-HIS biosensor chip, and referencing sensors to account for non-specific binding of Gli2 to the HIS sensor. A flipped assay, using HIS-tagged Gli2 on the sensor and a range of Kif7 concentrations in buffer, was also conducted.

[1] = molecular target: T3, GMPCPP-stabilized microtubules (porcine, UniProt P02554 1-445); assay: TIRF microscopy, GFP intensity on microtubules, no Gli2-ZF
T3 construct: Polymer of tubulin heterodimers; in TIRF partly labeled with X-rhodamine/HiLyte 647 and biotin; also called MT; GMPCPP-microtubule lattice

Gli2-ZF-SNAP = molecular target: T2, Gli2-ZF-SNAP; assay: TIRF microscopy; 100 nM Gli2-ZF-SNAP-Alexa647 with 100 nM kinesin on microtubules
Source text: Briefly, fluorescently labeled (Rhodamine/HiLyte-647) and biotinylated microtubule seeds, polymerized with the non-hydrolyzable GTP analog GMPCPP, were immobilized on a glass coverslip through neutravidin-biotin linkages (FIG. 4A). GMPCPP was chosen as it mimics the GTP-form of tubulin present at microtubule ends (Jiang et al., Developmental cell, 49, 711-730. e8 2019). […] A Gli2 control was used to measure non-specific binding of Gli2-ZF to microtubules. Single molecule photobleaching of purified Kif7-DM confirmed that it is a dimer (FIGS. 11A-D).
To address which of the two Gli-interaction sites of Kif7 plays a role in modulating Kif7 microtubule binding, we generated two chimeric proteins where we swapped either the motor and neck-linker (M) or the coiled-coil (CC) domains of Kif7 and Kif27 (Kif7M-Kif27CC and Kif27M-Kif7CC) (FIG. 5E). […] The binding affinity for each of the two Gli interaction sites on Kif7-DM could be determined using BLI (FIG. 12H). We compared the two chimeras to Kif7-DM in TIRF microscopy-based microtubule binding assay. […] Next, we compared how the microtubule binding of the chimeras were regulated by Gli with respect to Kif7-DM.

T3 sequence (P02554 whole entry): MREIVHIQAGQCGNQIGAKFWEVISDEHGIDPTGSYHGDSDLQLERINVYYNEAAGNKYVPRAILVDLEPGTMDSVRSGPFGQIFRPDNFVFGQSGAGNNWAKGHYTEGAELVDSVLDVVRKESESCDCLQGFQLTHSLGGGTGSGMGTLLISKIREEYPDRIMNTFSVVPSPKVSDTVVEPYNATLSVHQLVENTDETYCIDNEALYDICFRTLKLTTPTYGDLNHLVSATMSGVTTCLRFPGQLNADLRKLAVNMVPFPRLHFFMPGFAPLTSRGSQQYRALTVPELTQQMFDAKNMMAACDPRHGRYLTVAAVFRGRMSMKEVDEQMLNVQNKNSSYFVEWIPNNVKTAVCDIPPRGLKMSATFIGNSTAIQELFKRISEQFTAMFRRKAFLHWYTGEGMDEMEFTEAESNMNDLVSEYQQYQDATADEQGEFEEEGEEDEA

Row | binding result (GST-Kif7-CC (460-600aa)) | fold binding to microtubules compared to Kif7-DM (GFP intensity) [1] | fold decrease in Gli recruitment on microtubules compared to Kif7-DM (Alexa-647 intensity per GFP intensity) (Gli2-ZF-SNAP) | Binder
1 | no binding (tested: 125 nM) | – | – | ZF1-2 (418-497) (other, human, UniProt P10070 418-497, looked up, One of the three truncations of the group m9; also called Gli2-ZF truncation ZF1-2) Gli2 zinc-finger truncation: KEDLDRDDCKQEAEVVIYETNCHWEDCTKEYDTQEQLVHHINNEHIHGEKKEFVCRWQACTREQKPFKAQYMLVVHMRRH
2 | no binding (tested: 125 nM) | – | – | ZF4-5 (530-604) (other, human, UniProt P10070 530-604, looked up, residues 530-604; One of the three truncations of the group m9; also called Gli2-ZF truncation ZF4-5) Gli2 zinc-finger truncation: EKPYVCEHEGCNKAFSNASDRAKHQNRTHSNEKPYICKIPGCTKRYTDPSSLRKHVKTVHGPDAHVTKKQRNDVH

The remaining lines, values behind:

Row | Binder | binding result (GST-Kif7-CC (460-600aa)) | fold binding to microtubules compared to Kif7-DM (GFP intensity) [1] | fold decrease in Gli recruitment on microtubules compared to Kif7-DM (Alexa-647 intensity per GFP intensity) (Gli2-ZF-SNAP)
3 | Kif27M-Kif7CC chimera (other, human, range 1-475; not shown: HIS tag (used for BLI); GFP tag) MEEIPVKVAVRIRPLLCKEALHNHQVCVRVIPNSQQVIIGRDRVFTFDFVFGKNSTQDEVYNTCIKPLVLSLIEGYNATVFAYGQTGSGKTYTIGGGHIASVVEGQKGIIPRAIQEIFQSISEHPSIDFNVKVSYIEVYKEDLRDLLELETSMKDLHIREDEKGNTVIVGAKECHVESAGEVMSLLEMGNAARHTGTTQMNEHSSRSHAIFTISICQVHKNMEAAEDGSWYSPRHIVSKFHFVDLAGSERVTKTGNTGERFKESIQINSGLLALGNVISALGDPRRKSSHIPYRDAKITRLLKDSLGGSAKTVMITCVSPSSSNFDESLNSLKYANRARNIRNKPTVNFSPESDRIDEMEFEIKLLREALQSQQAGVSQTTQINREGSPDTNRIHSLEEQVAQLQGECLGYQCCVEEAFTFLVDLKDTVRLNEKQQHKLQEWFNMIQEVRKAVLTSFRGIGGTASLEEGPQHVTVPDSGIESASVEDQAAQGAGGRKEDEGAQQLLTLQNQVARLEEENRDFLAALEDAMEQYKLQSDRLREQQEEMVELRLRLELVRPGWGGPRLLNGLPPGSFVPRPHTAPLGGAHAHVLGMVPPACLPGDEVGSEQRGEQVTN | – | ~3 fold | 2 fold
4 | Kif7M-Kif27CC chimera (other, human, range 475-570; not shown: HIS tag (used for BLI); GFP tag) MGLEAQRLPGAEEAPVRVALRVRPLLPKELLHGHQSCLQVEPGLGRVTLGRDRHFGFHVVLAEDAGQEAVYQACVQPLLEAFFEGFNATVFAYGQTGSGKTYTMGEASVASLLEDEQGIVPRAMAEAFKLIDENDLLDCLVHVSYLEVYKEEFRDLLEVGTASRDIQLREDERGNVVLCGVKEVDVEGLDEVLSLLEMGNAARHTGATHLNHLSSRSHTVFTVTLEQRGRAPSRLPRPAPGQLLVSKFHFVDLAGSERVLKTGSTGERLKESIQINSSLLALGNVISALGDPQRRGSHIPYRDSKITRILKDSLGGNAKTVMIACVSPSSSDFDETLNTLNYASRAQNIRNRATVNWRPEAERPPEETASGARGPPRHRSETRIIHRGRRAPGPATASAAAAMRLGAECARYRACTDAAYSLLRELQAEPGLPGAAARKVRDWLCAVEGERSALSSASGPDSVLQLKRELKKCQCVLAADEVVFNQKELEVKELKNQVQMMVQENKGHAVSLKEAQKVNRLQNEKIIEQQLLVDQLSEELTKLNLSVTSSAKENCGDG | – | ~10 fold | 3 fold
